Results from the supplement of paper PMC7877785.
± gives the uncertainty stated by the source.

Test: self-splicing fitness, log relative to wild type (ln ratio); higher = more splicing; Tetrahymena group I intron in knt gene, E. coli kanamycin selection, DiMSum; sequences stand for … in CUCUCU…GGAGGGAAAAGUUAUCAGGCAUGCACCUGGUAGCUAGUCUUUAAACCAAUAGAUUGCAUCGGUUUAAAAGGCAAGACCGUCAAAUUGCGGGAAAGGGGUCAACAGCCGUUCAGUACCAAGUCUCAGGGGAAACUUUGAGAUGGCCUUGCAAAGGGUAUGGUAAUAAGCUGACGGACAUGGUCCUAACCACGCAGCCAAGUCCUAAGUCAACAGAUCUUCUGUUGAUAUGGAUGCAGUUCACAGACUAAAUGUCGGUCGGGGAAGAUGUAUUCUUCUCAUAAGAUAUAGUCGGACCUCUCCUUAAUGGGAGCUAGCGGAUGAAGUGAUGCAACACUGGAGCCGCUGGGAACUAAUUUGUAUGCGAAAGUAUAUUGAUUAGUUUUGGAGUACUCGUGGUCG
In short: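 Library with all eight P1ex-region intron nucleotides randomised, intron inside the knt kanamycin-resistance gene on pET-22b(+), in E. coli BL21(DE3). Cells grew overnight at 37°C or 30°C on LB agar with or without 25 μg/mL kanamycin (plus 100 μg/mL carbenicillin, 50 μM IPTG, 0.2% rhamnose), in six replicate transformations. Pooled colonies were amplicon-sequenced on Illumina HiSeq 2500. DiMSum fitness is the error-weighted combination of wild-type-normalised replicate fold changes, kanamycin versus none.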

| Sequence | self-splicing fitness (ln) (30 °C) | self-splicing fitness (ln) (37 °C) |
| --- | --- | --- |
| CUUGAGCAAUAUUACGGGGU | -3.14 ± 0.17 | -3.37 ± 0.27 |
| GUCCAGCAAUAUUACGCCGC | -4.18 ± 0.33 | -2.58 ± 0.27 |
| AAUUAGCAAUAUUACGUAGA | -1.75 ± 0.14 | -2.03 ± 0.17 |
| CUGUAGCAAUAUUACGGCAU | -3.45 ± 0.31 | -1.86 ± 0.27 |
| AACCAGCAAUAUUACGGAUU | -2.07 ± 0.071 | -1.08 ± 0.087 |
| GGUAAGCAAUAUUACGUACC | -3.79 ± 0.44 |  |
| GCUUAGCAAUAUUACGUCGA | -1.67 ± 0.088 | -0.777 ± 0.11 |
| CCUGAGCAAUAUUACGGGGG | -3.15 ± 0.16 | -1.55 ± 0.22 |
| CUGUAGCAAUAUUACGGUUG | -0.904 ± 0.081 | -0.833 ± 0.087 |
| AGUUAGCAAUAUUACGUAAG | -2.42 ± 0.21 | -0.816 ± 0.27 |
| GACGAGCAAUAUUACGGGAC | -3.94 ± 0.31 | -2.23 ± 0.46 |
| CGAAAGCAAUAUUACGGCGA | -0.763 ± 0.11 | -0.486 ± 0.11 |
| UCCGAGCAAUAUUACGUAGG | -2.69 ± 0.16 | -2 ± 0.25 |
| UCCCAGCAAUAUUACGACAA | -2.16 ± 0.15 | -1.37 ± 0.14 |
| AGAAAGCAAUAUUACGUCGA | -0.974 ± 0.069 | -0.242 ± 0.08 |
| CAUGAGCAAUAUUACGUGGG | -4.29 ± 0.27 | -3.23 ± 0.32 |
| GUCAAGCAAUAUUACGGGAC | -2.81 ± 0.5 |  |
| AGAGAGCAAUAUUACGAGUG |  | -2.15 ± 0.34 |
| UAAAAGCAAUAUUACGGACC | -1.44 ± 0.2 | -1.46 ± 0.29 |
| GUCAAGCAAUAUUACGGGAA | -3.1 ± 0.19 | -0.398 ± 0.12 |
| AGUCAGCAAUAUUACGCGUG | -1.28 ± 0.097 | -0.66 ± 0.11 |
| GCGUAGCAAUAUUACGAGAA | -1.15 ± 0.29 | -1.9 ± 0.2 |
| CACCAGCAAUAUUACGAUAC | -3.58 ± 0.23 | -1.94 ± 0.19 |
| ACCUAGCAAUAUUACGUCAA | -2.03 ± 0.2 | -1.78 ± 0.17 |
| UAGUAGCAAUAUUACGCACG | -0.964 ± 0.15 | -0.244 ± 0.21 |

| Sequence | self-splicing fitness (ln) (30 °C) | self-splicing fitness (ln) (37 °C) |
| --- | --- | --- |
| AGUUAGCAAUAUUACGGUAG | -3.77 ± 0.3 | -2.11 ± 0.34 |
| GGGCAGCAAUAUUACGCGUG | -0.165 ± 0.18 | -1.87 ± 0.22 |
| AACGAGCAAUAUUACGCAUA | -2.86 ± 0.38 | -1.26 ± 0.35 |
| AUGAAGCAAUAUUACGCCGU | -0.474 ± 0.12 | -0.0165 ± 0.14 |
| CGAGAGCAAUAUUACGUACU |  | -0.953 ± 0.3 |
| CAAGAGCAAUAUUACGAGCU | -2.04 ± 0.28 | -2.06 ± 0.37 |
| AAUAAGCAAUAUUACGGUUA | -0.197 ± 0.08 | -0.369 ± 0.077 |
| UCGCAGCAAUAUUACGUUCG | -0.961 ± 0.088 | -0.562 ± 0.094 |
| AUCAAGCAAUAUUACGCAAU | -2.22 ± 0.14 | -1.56 ± 0.14 |
| CAGUAGCAAUAUUACGGAAG | -1.9 ± 0.15 | -0.317 ± 0.14 |
| CAGGAGCAAUAUUACGGGAA | -4.1 ± 0.23 | -2.47 ± 0.17 |
| CCCCAGCAAUAUUACGGAGG | -4.83 ± 0.26 | -2.63 ± 0.16 |
| CCGAAGCAAUAUUACGUCGU | -1.94 ± 0.074 | -0.687 ± 0.077 |
| GGCGAGCAAUAUUACGUGAU | -2.26 ± 0.15 | -1.08 ± 0.14 |
| UUCGAGCAAUAUUACGGCGU | -1.44 ± 0.16 | -0.438 ± 0.19 |
| GAUAAGCAAUAUUACGUGCC | -0.717 ± 0.1 | -0.548 ± 0.13 |
| AAGUAGCAAUAUUACGUCAU | -2.29 ± 0.13 | -0.997 ± 0.12 |
| CUGAAGCAAUAUUACGAGCU | -3.42 ± 0.21 | -2.84 ± 0.27 |
| ACUAAGCAAUAUUACGUACA | -1.55 ± 0.086 | -1.14 ± 0.087 |
| UGCCAGCAAUAUUACGAUUU | -4.1 ± 0.23 | -1.54 ± 0.14 |
| AGUCAGCAAUAUUACGCAGC | -2.28 ± 0.15 | -1.22 ± 0.16 |
| AGUUAGCAAUAUUACGAACC | -1 ± 0.15 | -0.401 ± 0.17 |
| UGUAAGCAAUAUUACGGGGC | -3.63 ± 0.23 | -3.24 ± 0.25 |
| CCCAAGCAAUAUUACGAGAC | -3.64 ± 0.21 | -1.4 ± 0.17 |
| AAUGAGCAAUAUUACGUGAA | -2.17 ± 0.16 | -1.8 ± 0.27 |

| Sequence | self-splicing fitness (ln) (30 °C) | self-splicing fitness (ln) (37 °C) |
| --- | --- | --- |
| GGAAAGCAAUAUUACGGCCG | -0.751 ± 0.12 | -0.566 ± 0.16 |
| AGAUAGCAAUAUUACGCGGG | -1.66 ± 0.13 | -1.68 ± 0.15 |
| UUAUAGCAAUAUUACGGAUG | -2.85 ± 0.16 | -1.09 ± 0.15 |
| UGUCAGCAAUAUUACGAUAC | -2.92 ± 0.24 | -2.41 ± 0.22 |
| AAGUAGCAAUAUUACGGGCU | -2.02 ± 0.12 | -1.44 ± 0.13 |
| CCUAAGCAAUAUUACGUGGC | -3.59 ± 0.18 | -2.85 ± 0.19 |
| GUUGAGCAAUAUUACGCUCU | -2.49 ± 0.47 |  |
| UUGGAGCAAUAUUACGUACC | -3.52 ± 0.43 | -2.01 ± 0.44 |
| UCAGAGCAAUAUUACGUGUG | -2.67 ± 0.13 | -2.53 ± 0.13 |
| UUUAAGCAAUAUUACGGGGG | -2.49 ± 0.22 | -2.04 ± 0.18 |
| UGUUAGCAAUAUUACGCAAG | -3.38 ± 0.37 | -2.13 ± 0.4 |
| CGUAAGCAAUAUUACGCUGG | -1.56 ± 0.12 | -0.793 ± 0.11 |
| UAAGAGCAAUAUUACGUCUU | -3.28 ± 0.2 | -1.49 ± 0.18 |
| UAUGAGCAAUAUUACGUCCC | -2.74 ± 0.49 |  |
| AUUCAGCAAUAUUACGAACC | -0.503 ± 0.16 | -0.325 ± 0.2 |
| CGAUAGCAAUAUUACGGGCU |  | 0.128 ± 0.17 |
| ACCUAGCAAUAUUACGGUCU | -1.69 ± 0.096 | -0.98 ± 0.11 |
| GUGGAGCAAUAUUACGUUAC | -2.99 ± 0.24 | -2.5 ± 0.3 |
| AUAGAGCAAUAUUACGAGAU | -0.944 ± 0.27 | -1.72 ± 0.4 |
| GAUGAGCAAUAUUACGGCCG | 0.414 ± 0.41 |  |
| CACAAGCAAUAUUACGCUCG | -0.562 ± 0.089 | -0.27 ± 0.092 |
| ACAUAGCAAUAUUACGUGGU | -3.44 ± 0.16 | -3.3 ± 0.24 |
| CAAGAGCAAUAUUACGGGCC |  | -2.71 ± 0.31 |
| GAUUAGCAAUAUUACGUUCU | -2.91 ± 0.11 | -2.07 ± 0.1 |
| CUUGAGCAAUAUUACGUCGA | -1.25 ± 0.24 |  |

| Sequence | self-splicing fitness (ln) (30 °C) | self-splicing fitness (ln) (37 °C) |
| --- | --- | --- |
| CUUAAGCAAUAUUACGGCUG | -1.38 ± 0.13 | -1.07 ± 0.17 |
| UCGUAGCAAUAUUACGUCAC | -1.39 ± 0.18 | -2 ± 0.38 |
| CGACAGCAAUAUUACGGAAG | -2.1 ± 0.068 | -1.24 ± 0.083 |
| UCCUAGCAAUAUUACGAAAA | -2.7 ± 0.43 |  |
| GUUCAGCAAUAUUACGUGUC | -0.83 ± 0.097 | 0.00179 ± 0.094 |
| GUAGAGCAAUAUUACGAAUG | -3.89 ± 0.3 | -2.16 ± 0.21 |
| UGAAAGCAAUAUUACGCGAC | -2.33 ± 0.42 | -2.08 ± 0.38 |
| UGUUAGCAAUAUUACGGCUU | -0.797 ± 0.16 | -0.574 ± 0.19 |
| GCCUAGCAAUAUUACGUACU | -0.867 ± 0.092 | -0.282 ± 0.093 |
| UAAUAGCAAUAUUACGACUA | -0.456 ± 0.11 | -0.0379 ± 0.13 |
| GUCUAGCAAUAUUACGAGUC | -1.93 ± 0.11 | -1.88 ± 0.093 |
| UAAAAGCAAUAUUACGAAAA | -2.94 ± 0.2 | -1.71 ± 0.16 |
| UAGCAGCAAUAUUACGGCAC | -2.14 ± 0.18 | 0.167 ± 0.21 |
| GAACAGCAAUAUUACGGGGU | -2.39 ± 0.081 | -2.57 ± 0.15 |
| AGGAAGCAAUAUUACGUCUG | -0.767 ± 0.058 | -0.387 ± 0.073 |
| GGUAAGCAAUAUUACGGCUA | 0.109 ± 0.085 | -0.0128 ± 0.11 |
| AAGUAGCAAUAUUACGGCAC | -1.17 ± 0.17 | -0.552 ± 0.17 |
| GAACAGCAAUAUUACGGUGA | -1.08 ± 0.071 | 0.0381 ± 0.08 |
| GUUCAGCAAUAUUACGAUUG | -0.497 ± 0.093 | -0.904 ± 0.15 |
| UAACAGCAAUAUUACGCUAC | -3.37 ± 0.15 | -2.24 ± 0.2 |
| AACCAGCAAUAUUACGUGGC | -3.06 ± 0.12 | -2.99 ± 0.17 |
| CGAUAGCAAUAUUACGACAA | -3.4 ± 0.34 | -2.35 ± 0.27 |
| AGAUAGCAAUAUUACGUCCC | -1.36 ± 0.2 | 0.133 ± 0.32 |
